Reference: publication PMC12272874, “The common homocystinuria-associated P1173L variant of human methionine synthase impairs reductive methylation” (The Journal of Biological Chemistry, 2025)

Tests used:
[1] = molecular target: T1, P1173L variant of human methionine synthase (MTR), full-length recombinant (human, UniProt Q99707 1-1265, P1173L); assay: native gel or EMSA; 15 μM cob(II)alamin-bound wild-type or P1173L MTR mixed with equimolar MTRR in Buffer C (100 mM HEPES, pH 7.4, 150 mM KCl, 10% glycerol), room temperature 5 min; 4–15% gradient gel, 4 °C; details: both partners purified
T1 construct: Methionine synthase (MTR), human, full length, clinical missense variant P1173L made from the wild-type pET28-thrombin-MTR construct; Homocystinuria-associated variant that occurs in patients; Same expression and purification as the wild type; Loaded with cob(II)alamin or MeCbl; also called P1173L MTR; P→L; source: E. coli BL21 (DE3), co-expressed with GST-tagged ΔNMMADHC, purified (Ni-NTA, size …)
T1 sequence (Q99707 whole entry P1173L): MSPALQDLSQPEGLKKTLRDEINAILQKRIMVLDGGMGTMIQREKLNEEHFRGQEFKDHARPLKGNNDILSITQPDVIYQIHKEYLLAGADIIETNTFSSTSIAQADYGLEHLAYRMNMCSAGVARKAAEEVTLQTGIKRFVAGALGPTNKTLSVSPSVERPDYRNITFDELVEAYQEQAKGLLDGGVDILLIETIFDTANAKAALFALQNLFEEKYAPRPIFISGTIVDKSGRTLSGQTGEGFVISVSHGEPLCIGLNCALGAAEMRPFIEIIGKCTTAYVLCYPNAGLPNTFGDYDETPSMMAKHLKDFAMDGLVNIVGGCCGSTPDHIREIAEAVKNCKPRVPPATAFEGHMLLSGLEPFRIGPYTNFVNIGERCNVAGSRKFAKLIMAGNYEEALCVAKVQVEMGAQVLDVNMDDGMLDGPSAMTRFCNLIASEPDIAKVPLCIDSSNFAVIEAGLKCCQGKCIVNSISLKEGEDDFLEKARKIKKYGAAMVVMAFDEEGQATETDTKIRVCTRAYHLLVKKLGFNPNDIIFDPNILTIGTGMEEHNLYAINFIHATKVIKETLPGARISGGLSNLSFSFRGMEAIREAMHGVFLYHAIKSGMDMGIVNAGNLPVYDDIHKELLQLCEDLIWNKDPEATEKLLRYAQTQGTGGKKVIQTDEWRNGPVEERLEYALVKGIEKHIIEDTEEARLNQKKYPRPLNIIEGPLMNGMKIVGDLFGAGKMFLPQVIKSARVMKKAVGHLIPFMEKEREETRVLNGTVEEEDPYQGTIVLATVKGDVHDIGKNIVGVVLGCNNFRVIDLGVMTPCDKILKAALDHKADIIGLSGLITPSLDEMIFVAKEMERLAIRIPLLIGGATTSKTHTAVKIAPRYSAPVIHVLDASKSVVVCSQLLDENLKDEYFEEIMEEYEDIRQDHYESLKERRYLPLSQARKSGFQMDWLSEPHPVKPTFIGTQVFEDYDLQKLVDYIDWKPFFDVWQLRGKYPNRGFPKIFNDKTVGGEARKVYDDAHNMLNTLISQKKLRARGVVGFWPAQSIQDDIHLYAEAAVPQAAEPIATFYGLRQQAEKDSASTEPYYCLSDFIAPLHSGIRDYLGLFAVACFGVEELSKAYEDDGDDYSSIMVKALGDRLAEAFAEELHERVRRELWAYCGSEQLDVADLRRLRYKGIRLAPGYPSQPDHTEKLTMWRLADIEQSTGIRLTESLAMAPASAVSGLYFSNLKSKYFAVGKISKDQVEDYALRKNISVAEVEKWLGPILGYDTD

[2] = molecular target: T2, Human methionine synthase (MTR), wild-type, full-length recombinant (human, UniProt Q99707 1-1265); assay: as above; details: both partners purified
T2 construct: Methionine synthase (MTR), human, full length, 140.5 kDa; codon-optimised synthetic gene in pET-28 between BamH1 and Xho1, thrombin cleavage site at the N-terminus; Monomer fraction of the size exclusion column was used; Loaded with cob(II)alamin (native gel, stopped-flow, EPR) or MeCbl (native gel with substrates); also called wild-type MTR; WT; source: E. coli BL21 (DE3), co-expressed with …
T2 sequence (Q99707 whole entry): as the sequence (Q99707 whole entry P1173L) above, with L1173P counted along it

B1: Human methionine synthase reductase (MTRR), full-length recombinant (enzyme, UniProt Q9UBK8-2 1-698, looked up)
chain: MRRFLLLYATQQGQAKAIAEEICEQAVVHGFSADLHCISESDKYDLKTETAPLVVVVSTTGTGDPPDTARKFVKEIQNQTLPVDFFAHLRYGLLGLGDSEYTYFCNGGKIIDKRLQELGARHFYDTGHADDCVGLELVVEPWIAGLWPALRKHFRSSRGQEEISGALPVASPASSRTDLVKSELLHIESQVELLRFDDSGRKDSEVLKQNAVNSNQSNVVIEDFESSLTRSVPPLSQASLNIPGLPPEYLQVHLQESLGQEESQVSVTSADPVFQVPISKAVQLTTNDAIKTTLLVELDISNTDFSYQPGDAFSVICPNSDSEVQSLLQRLQLEDKREHCVLLKIKADTKKKGATLPQHIPAGCSLQFIFTWCLEIRAIPKKAFLRALVDYTSDSAEKRRLQELCSKQGAADYSRFVRDACACLLDLLLAFPSCQPPLSLLLEHLPKLQPRPYSCASSSLFHPGKLHFVFNIVEFLSTATTEVLRKGVCTGWLALLVASVLQPNIHASHEDSGKALAPKISISPRTTNSFHLPDDPSIPIIMVGPGTGIAPFIGFLQHREKLQEQHPDGNFGAMWLFFGCRHKDRDYLFRKELRHFLKHGILTHLKVSFSRDAPVGEEEAPAKYVQDNIQLHGQQVARILLQENGHIYVCGDAKNMAKDVHDALVQIISKEVGVEKLEAMKTLATLKEEKRYLQDIWS
notes: Methionine synthase reductase (MTRR), human, full length; purified by the same protocol as ΔCMTRR; source: E. coli BL21(DE3), purified (Glutathione Sepharose 4B, thrombin cleavage, size exclusion chromatography); not shown: GST, N-terminal, cleaved
Does B1 bind [1]?
Result: binds

Does B1 bind [2]?
Result: binds
